T1: human neutrophil elastase (human, UniProt P08246 30-247, glycans (NAG-NAG-FUC) at N109 and N204, chymotrypsinogen numbering, seen in the crystal)
T1 construct: Purified hNE bought from Elastin Products Company; In the crystal, density is defined for I1 to Q218; also called hNE; HNE
T1 sequence: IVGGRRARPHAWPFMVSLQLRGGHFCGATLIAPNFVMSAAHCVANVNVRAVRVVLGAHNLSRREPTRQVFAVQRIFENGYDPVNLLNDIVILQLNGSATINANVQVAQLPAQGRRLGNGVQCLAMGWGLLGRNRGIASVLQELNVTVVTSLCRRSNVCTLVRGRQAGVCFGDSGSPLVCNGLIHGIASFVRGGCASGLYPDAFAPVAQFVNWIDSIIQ

T2: human proteinase 3 (human, UniProt P24158 28-248)
T2 sequence (looked up): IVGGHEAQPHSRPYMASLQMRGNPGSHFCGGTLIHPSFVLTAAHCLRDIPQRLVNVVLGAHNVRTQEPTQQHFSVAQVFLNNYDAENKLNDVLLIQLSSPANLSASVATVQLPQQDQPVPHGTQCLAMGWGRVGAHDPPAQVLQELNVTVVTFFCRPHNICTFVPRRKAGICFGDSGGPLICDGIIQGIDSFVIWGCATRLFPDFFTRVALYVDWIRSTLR

T3: mouse neutrophil elastase (mouse, UniProt Q3UP87 29-265, limits assumed)
T3 sequence (looked up): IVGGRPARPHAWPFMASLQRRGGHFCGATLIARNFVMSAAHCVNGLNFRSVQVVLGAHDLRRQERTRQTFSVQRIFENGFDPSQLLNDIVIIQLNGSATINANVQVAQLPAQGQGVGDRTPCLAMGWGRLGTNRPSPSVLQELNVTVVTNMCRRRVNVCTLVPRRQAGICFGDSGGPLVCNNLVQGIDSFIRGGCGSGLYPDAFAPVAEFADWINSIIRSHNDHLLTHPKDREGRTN

T4: human cathepsin G (human, UniProt P08311 21-244)
T4 construct: also called hCG; CG
T4 sequence (looked up): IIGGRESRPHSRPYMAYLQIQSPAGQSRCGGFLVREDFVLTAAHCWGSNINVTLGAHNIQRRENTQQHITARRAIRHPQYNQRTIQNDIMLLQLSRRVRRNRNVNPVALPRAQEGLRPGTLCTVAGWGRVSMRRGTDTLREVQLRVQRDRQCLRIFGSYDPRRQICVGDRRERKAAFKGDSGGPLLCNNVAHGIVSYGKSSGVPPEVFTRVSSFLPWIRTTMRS

B1: NbE201 (VHH)
VHH: QVQLQESGGGLVQAGGSLRLSCVVPGRTISLYRMGWFRQAPGKEREFVAGINWSGDMTDYVDSVKGRFTISRDNAKNTVYLEMNSLKPEDTAIYYCTADPKLLPLADSSYGYWGQGTQVTVSS
notes: Llama VHH made in the periplasm of E. coli WK6 (pHEN6 vector) and purified by IMAC; This form was used in the enzymatic assays and for crystallisation; also called NbE201 wt; NbE201-WT
B2: biotinylated NbE201 (VHH)
VHH: B1 VHH
modifications: C-terminal Cys biotinylated with EZ-Link Maleimide-PEG2-Biotin
notes: Form immobilised on streptavidin sensors in all BLI experiments; It was produced in the pHEN25 vector and biotinylated site-specifically on its C-terminal Cys; also called NbE201_Cter Biot; biotinylated ISVD NbE201

What was measured:
[1] = target: T1, human neutrophil elastase; experiment: enzymatic assay, substrate N-Succinyl-Ala-Ala-Ala-pNA, Morrison equation for tight binders, N=3
Description: Inhibition of the hydrolysis of a chromogenic substrate. […] Briefly, hNE (Elastin products company, EPC, United States) was resuspended at 1 mg·mL⁻¹ in 50 mM sodium acetate buffer pH 5 containing 100 mM NaCl and stored at 4° C. The substrate Succinyl-Ala-Ala-Ala-paraNitroAnilide was dissolved at 1 mM in 0.1 M Tris pH 7.5 with NaCl 0.5 M and NaN3 0.01% (% w/v) and stored at 4° C. 230 μl of substrate (1 mM) were mixed with 10 μl of Bovine Serum Albumin 9 μM (BSA, Sigma-Aldrich, Germany) and incubated 20 min at 25° C. in a clear flat bottom 96-well plate (Greiner Bio-One, Belgium). […] Immediately after, the hNE was added to the mix at a final concentration of 50 nM. […] The initial velocity determined in the presence of the ISVD at different Nb: hNE ratios was compared to that measured in the absence of the ISVD, to determine the residual activity. The delay between the addition of hNE and the first measurement was about 100 seconds. […] In some experiments, the ISVD was preincubated for 15 minutes with the hNE and the complex was added to the substrate.
The Kᵢ was calculated averaging three Kᵢ of three independent curves, each curve representing experiment carried out with a different lot of production of the Nb.

human proteinase 3 [2] = target: T2, human proteinase 3; experiment: cell-based or functional assay
[3] = target: T1, human neutrophil elastase; experiment: cell-based or functional assay
[4] = target: T3, mouse neutrophil elastase; experiment: cell-based or functional assay
[5] = target: T1, human neutrophil elastase; experiment: cell-based or functional assay; remark: listed apart in the source
[6] = target: T3, mouse neutrophil elastase; experiment: enzymatic assay, substrate MeOSuc-Ala-Ala-Pro-Val-AMC, Morrison equation for tight binders, N=6
Description: The substrate used were Succinyl-Ala-Ala-Ala-paraNitroAnilide (1 mM in 0.1 M Tris pH 7.5 with NaCl 0.5 M and NaN3 0.01%, % w/v from Sigma-Aldrich) for pPE, MeOSuc-Ala-Ala-Pro-Val-AMC (100 μM in Tris 50 mM, NaCl 1 M, 0.05% (% w/v) Brij-35, pH 7.5) for mNE, N-Succinyl-Ala-Ala-Pro-Phe p-nitroanilide (0.45 mM in 100 mM HEPES pH 7.5, from Sigma Aldrich) for hCG and Boc-Ala-Ala-Nva-SBzl (0.22 mM in 100 mM MOPS pH 5.0 0.5 M NaCl, 100 μM DTNB, DMSO 10%, from EPC) for PR3. mNE (rmELA2 from R&D systems, United Kingdom) was first activated according to the supplier information. In brief, mNE was incubated with recombinant mouse active cathepsin C/DPPIy (rmCathepsin C from R&D systems) in MES 50 mM, NaCl 50 mM, pH 5.5 for 2 h at 37° C. […] The hydrolysis of the substrate and the determination of the residual activity were carried out as explained above for the inhibition of hNE.

[7] = target: T1, human neutrophil elastase; experiment: BLI, comparison of the values in Table 2
[8] = target: T5, porcine pancreatic elastase (pig, UniProt P00772 27-266); experiment: BLI, biotinylated NbE201 on streptavidin sensors, protease in solution
T5 construct: also called pPE; PPE
Description: (§1) The biosensors were then immersed in a 50 nM solution of a serine protease. The proteases tested were human cathepsin G (hCG), human proteinase 3 (hPR3), mouse pancreatic elastase (mPE), mouse neutrophil elastase (mNE) and porcine pancreatic elastase (pPE). hNE was used a positive control. The association and dissociation were measured for 70 s and 320 s respectively, in kinetic buffer (KB, Sartorius). The experiments were carried out at 30° C. in 384-wells black-bottom microplates in polypropylene (Greiner Bio-One, Belgium) and with orbital agitation (1000 rpm).

human proteinase 3 [9] = target: T2, human proteinase 3; experiment: as above
Description: as §1

human cathepsin G = target: T4, human cathepsin G; experiment: as above
Description: as §1

[10] = target: T3, mouse neutrophil elastase; experiment: BLI (Octet HTX), NbE201_Cter Biot on streptavidin sensor, mNE as analyte, 1:1 fit, N=1
Description: FIG. 9. […] On the x-axis, the time in seconds. On the y-axis, the interference signal in nm. The dashed line separates the association step from the dissociation step. In black, the experimental signal. In grey, the fitting using a 1:1 model. The mNE concentrations tested are 100-50-25-12.5-6.25-3.125 nM, from top to bottom. Association and dissociation kinetics were measured for 300 s and 600 s respectively. The obtained sensorgrams were fitted to a 1:1 model by using the Data Analysis Octet Software Version 10.0 (Sartorius) to derive the rate constants for association (kₒₙ) and dissociation (koff) and the equilibrium dissociation constant (KD=koff/kₒₙ).
(§2) Then, the biosensors were immersed in a solution of hNE at different concentrations ([…]-0.753 nM). Association and dissociation kinetics were measured for 180 s and 300 s respectively, in 10×KB buffer. All the experiments were carried out at 30° C. in 96-wells or 384-wells black-bottom microplates in polypropylene (Greiner Bio-One, Belgium) and with orbital agitation (1500 rpm). The sensorgrams obtained were fitted globally to a 1:1 model to derive the rate constants for association (kₒₙ) and dissociation (koff) and the equilibrium dissociation constant (KD=koff/kₒₙ). […] were carried out. The error on KD was calculated using the following equation: […]

[11] = target: T1, human neutrophil elastase; experiment: BLI (Octet HTX), biotinylated NbE201 on streptavidin sensor, hNE as analyte, global 1:1 fit, N=2
Description: FIG. 6. […] On the x-axis, the time in seconds. On the y-axis, the interference signal in nm. A vertical dashed line divides the association step from the dissociation step. […] Each curve (in black) represents measured data (□□) referring to a single concentration of hNE used: 25 nM, 6.25 nM, 3.125 nM, 1.563 nM and 0.753 nM (from top to bottom). In grey, is represented the fitting of the data from which the KD value and kinetic parameters were derived. Data were fitted accordingly to a 1:1 ligand model by using the Data Analysis Octet Software Version 10.0 (Satorius). Independent replicates of the experiment were done (N=2) and the mean (±st. dev.) of the kinetics parameters measured and indicated in Table 2.
as §2

T5 sequence (P00772 27-266): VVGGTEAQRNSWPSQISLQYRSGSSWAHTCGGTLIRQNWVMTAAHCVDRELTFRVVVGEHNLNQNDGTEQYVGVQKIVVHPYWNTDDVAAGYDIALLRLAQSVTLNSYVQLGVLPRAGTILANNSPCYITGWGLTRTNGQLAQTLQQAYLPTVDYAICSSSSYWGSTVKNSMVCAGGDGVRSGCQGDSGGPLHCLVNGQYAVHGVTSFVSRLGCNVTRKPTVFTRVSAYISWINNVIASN

Row | Binder | Ki [1] | inhibition of protease activity at NbE201:enzyme ratio of 60 (human proteinase 3 [2]) | IC50, inhibition of elastin hydrolysis by hNE (132 nM) [3] | fold inhibitory activity relative to mNE [3] | molar ratio inhibitor:hNE for total elastase inhibition in vitro [3] | IC50, inhibition of hydrolysis of MeOSuc-Ala-Ala-Pro-Val-AMC by mNE (14.7 nM) [4] | IC50, inhibition of hydrolysis of N-Succinyl-Ala-Ala-Ala-paraNitroAnilide by hNE (50 nM) [5] | Ki [6] | fold affinity relative to mNE [7] | binding result [8] | binding result (human proteinase 3 [9]) | binding result (human cathepsin G) | Kd [10] | koff [10] | kon [10] | Kd [11] | koff [11] | kon [11]
1 | B1 | 4.1 nM | 20% | 488 nM | ~10 fold | 3 NbE201:hNE molar ratio | 49.4 nM | 38.3 nM | 38.8 nM |  |  |  |  |  |  |  |  |  | 
2 | B2 |  |  |  |  |  |  |  |  | ~10 fold | no binding (tested: 50 nM) | no binding (tested: 50 nM) | no binding (tested: 50 nM) | 49 nM | 0.019 s⁻¹ | 390000 M⁻¹ s⁻¹ | 1.3 nM | 0.0032 s⁻¹ | 2.6e+06 M⁻¹ s⁻¹
